Assay [1] addresses poly(A)-binding protein C1 (PABPC1), full length human (human) (UniProt P11940).
The target of assay [2] is PABPC1ΔLt2 (residues 1-420, 471-636) (human) (UniProt P11940).

poly(A)-binding protein C1 (PABPC1), full length human, sequence (P11940 whole entry): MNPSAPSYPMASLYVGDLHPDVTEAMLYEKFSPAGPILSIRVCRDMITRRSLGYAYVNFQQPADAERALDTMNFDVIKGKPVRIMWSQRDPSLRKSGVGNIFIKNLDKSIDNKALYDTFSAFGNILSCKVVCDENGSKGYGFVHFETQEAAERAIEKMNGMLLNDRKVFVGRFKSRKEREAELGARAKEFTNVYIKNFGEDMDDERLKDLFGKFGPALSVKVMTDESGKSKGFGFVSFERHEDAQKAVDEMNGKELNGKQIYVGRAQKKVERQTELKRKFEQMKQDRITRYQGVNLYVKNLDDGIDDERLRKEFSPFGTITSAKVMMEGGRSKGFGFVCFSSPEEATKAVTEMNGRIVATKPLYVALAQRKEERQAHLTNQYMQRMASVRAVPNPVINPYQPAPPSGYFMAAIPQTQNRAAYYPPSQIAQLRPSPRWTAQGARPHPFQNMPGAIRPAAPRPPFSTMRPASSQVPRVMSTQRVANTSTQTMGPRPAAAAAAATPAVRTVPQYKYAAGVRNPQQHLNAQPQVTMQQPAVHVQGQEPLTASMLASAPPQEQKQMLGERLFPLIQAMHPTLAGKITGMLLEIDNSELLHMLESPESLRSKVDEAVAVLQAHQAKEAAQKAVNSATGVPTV

Regarding “poly(A)-binding protein C1 (PABPC1), full length human (from UniProt P11940 1-636) (natural protein)”, in assay [1], the translation of capped luciferase mRNA with poly(A) in PABPC1-depleted rabbit reticulocyte lysate after adding 10 nM purified protein; fold enhancement over depleted lysate was determined as 2.5 fold.

Regarding “PABPC1ΔLt2 (residues 1-420, 471-636) (from UniProt P11940 1-636) (natural protein)”, the translation of capped luciferase mRNA with poly(A) in PABPC1-depleted rabbit reticulocyte lysate after adding 10 nM purified protein; fold enhancement over depleted lysate in assay [2] is 1.7 fold.
